Tests used:
[1] = molecular target: recombinant human tumor necrosis factor-α (human) (UniProt P01375); test: cell-based or functional assay
[2] = molecular target: recombinant human tumor necrosis factor-α (human) (UniProt P01375); test: SPR, Biacore X100; antibody captured by goat anti-human IgG Fc on CM5 chip, TNFα as analyte

Sequence of recombinant human tumor necrosis factor-α (human) (P01375 77-233 limits assumed): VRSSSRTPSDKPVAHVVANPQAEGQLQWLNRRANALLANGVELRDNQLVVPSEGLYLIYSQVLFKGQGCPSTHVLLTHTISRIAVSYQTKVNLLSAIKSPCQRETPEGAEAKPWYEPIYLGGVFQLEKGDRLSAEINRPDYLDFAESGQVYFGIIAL

In the case of “Humira (adalimumab, purchased from Abbott Laboratories) (antibody)”, the EC50(ng/mL), neutralization of TNFα killing effect on L929 cell [1] is reported as 19.1 ng/mL, the IC50 (concentration at which 50% of the rhTNFα toxicity to L929 cells can be neutralized) [1] is reported as 0.01 to 0.04 µg/mL and the Ka [2] is reported as 9.3e+09 M⁻¹. The Kd [2] was 108 pM.

— patent publication US20120219547A1
